pKd: −log10 of the molar value.
Key:
[1] = target: HLA/pTax complex (HLA-A0201 with the pTax peptide of HTLV-1 Tax), HLA/peptide complex used in surface plasmon resonance (human); assay: surface plasmon resonance, soluble TCR and HLA/peptide complex
[2] = target: HLA/pHuD complex (HLA-A0201 with the modified peptide pHuD), HLA/peptide complex used in surface plasmon resonance (human); assay: as above
[3] = target: pHuD peptide presented by HLA-A2 on T2 cells (human); assay: cell-based or functional assay

wild type Tax-TCR, soluble TCR molecule (HLA-A0201-restricted TCR specific for the pTax peptide of HTLV-1 Tax)
pKd [1]: 5.74
half-life t1/2 [1]: 9.3 s
pKd [2]: 3.91

Tax-TCR expressed on transduced Jurkat cells or primary human T cells (pMP71 retroviral construct)
kinetic of CD107 upregulation [3]: 4 h
peptide needed to trigger a CD107 response [3]: 10 fold
